For orientation: Kd means the free concentration of one partner at which half of the binding sites on the other are occupied at equilibrium, for simple one-to-one binding. A high value points to lower affinity. One may read the koff as a measure of how fast the partners let go of each other. A lower koff goes with a long-lived complex. As usually defined, the kon is the rate constant with which the complex forms. One may read the IC50 as the point on the concentration scale where inhibition reaches its midpoint. A low value points to greater potency in that assay. One may read the EC50 as the midpoint of the concentration-response curve. A low value points to greater potency.

The results in this text go back to patent US20200048328A1 (Bristol-Myers Squibb, published 2020).

Read-outs that look alike come from different tables or passages of the source.

In one assay the target is T1, domain I of HSA (human, UniProt P02768 25-221, limits assumed).
T1 construct: domain: I; also called HSA domain I
The assay is described as follows: SPR on HSA domains.

The target in the next assay is T2, domain III of HSA (human, UniProt P02768 405-609, limits assumed).
T2 construct: domain: III; also called HuSA domainIII
The assay is described as follows: SPR on HSA domains.

Assay [1] addresses T3, human serum albumin (human, UniProt P02768 25-609).
T3 construct: immobilized on chips or coated on plates elsewhere; also called HSA; HuSA
The assay can be described thus: SPR, albumin immobilized. On the technique in general: In SPR one partner is held on a chip, and binding of the other changes the refractive index at the surface.

Assay [2] addresses T4, rhesus serum albumin (rhesus, UniProt Q28522 17-600).
T4 construct: also called RhSA; Rh-SA
The assay can be described thus: SPR, albumin immobilized.

In assay [3] the target is T5, mouse serum albumin (mouse, UniProt P07724 25-608).
T5 construct: also called MSA; MuSA
The assay is described as follows: SPR, albumin immobilized.

Assay [4] concerns the target T6, cynomolgus serum albumin (cynomolgus, UniProt A2V9Z4 25-608).
T6 construct: also called cynoSA; CySA
The assay can be described thus: SPR, albumin immobilized.

The target in assay [5] is T7, rat serum albumin (rat, UniProt P02770 25-608).
T7 construct: also called Rat SA; RSA
The assay can be described thus: SPR, albumin immobilized.

The target of assay [6] is T3, human serum albumin. The assay is described as follows: hFcRn:HSA competition AlphaScreen, pH 5.5. For orientation: Alpha assays give light when donor and acceptor beads are brought close together.
The target in assay [7] is T3, human serum albumin. The assay is described as follows: direct binding ELISA on coated HSA, mono-Adnectin (column HSA EC50 (nM)). For orientation: ELISA stands for enzyme-linked immunosorbent assay.
Assay [8] has as its target T3, human serum albumin. The assay can be described thus: SPR, albumin immobilized. The source holds these as a separate data set.
The target in assay [9] is T4, rhesus serum albumin. The assay can be described thus: SPR, albumin immobilized. This is another data set of the same source.
Assay [10] deals with T5, mouse serum albumin. The assay can be described thus: SPR, albumin immobilized. This is another data set of the same source.
For assay [11], the target named is T6, cynomolgus serum albumin. The assay is described as follows: SPR, albumin immobilized. The source holds these as a separate data set.
Assay [12] concerns the target T7, rat serum albumin. The assay can be described thus: SPR, albumin immobilized. The source holds these as a separate data set.
The target in assay [13] is T3, human serum albumin. The assay can be described thus: SPR, albumin immobilized, Adnectin 250 nM.
Assay [14] addresses T4, rhesus serum albumin. The assay is described as follows: SPR, albumin immobilized, Adnectin 250 nM.
The target in assay [15] is T5, mouse serum albumin. The assay is described as follows: SPR, albumin immobilized, Adnectin 250 nM.
The target of assay [16] is T7, rat serum albumin. The assay can be described thus: SPR, albumin immobilized, Adnectin 250 nM.
Assay [17] has as its target T3, human serum albumin. The assay can be described thus: SPR, albumin immobilized. The source holds these as a separate data set.
Assay [18] has as its target T4, rhesus serum albumin. The assay is described as follows: SPR, albumin immobilized. The source holds these as a separate data set.
The target of assay [19] is T5, mouse serum albumin. The assay can be described thus: SPR, albumin immobilized. The source holds these as a separate data set.
The target of assay [20] is T8, human PCSK9 (human, UniProt Q8NBP7 31-692).
T8 construct: also called hPCSK9; huPCSK9
The assay can be described thus: PCSK9:LDLR FRET, competition.

Assay [21] addresses T8, human PCSK9. The assay is described as follows: PCSK9:EGFA FRET 1, competition.
For assay [22], the target named is T8, human PCSK9. The assay can be described thus: PCSK9:EGFA FRET 2, competition.
Assay [23] has as its target T3, human serum albumin. The assay can be described thus: direct binding ELISA, albumin coated.
For assay [24], the target named is T4, rhesus serum albumin. The assay can be described thus: direct binding ELISA, albumin coated.
Assay [25] has as its target T5, mouse serum albumin. The assay is described as follows: direct binding ELISA, albumin coated.
Assay [26] concerns the target T3, human serum albumin. The assay can be described thus: SPR, albumin immobilized, HBSP pH 7.4.
Assay [27] concerns the target T4, rhesus serum albumin. The assay can be described thus: SPR, albumin immobilized, HBSP pH 7.4.
Assay [28] has as its target T5, mouse serum albumin. The assay can be described thus: SPR, albumin immobilized, HBSP pH 7.4.
In assay [29] the target is T3, human serum albumin. The assay is described as follows: SPR, albumin immobilized, acetate pH 5.5.
The target in assay [30] is T4, rhesus serum albumin. The assay is described as follows: SPR, albumin immobilized, acetate pH 5.5.
Assay [31] deals with T5, mouse serum albumin. The assay is described as follows: SPR, albumin immobilized, acetate pH 5.5.
For assay [32], the target named is T3, human serum albumin. The assay can be described thus: SPR, albumin immobilized, acetate pH 7.4.
In assay [33] the target is T4, rhesus serum albumin. The assay is described as follows: SPR, albumin immobilized, acetate pH 7.4.
Assay [34] has as its target T5, mouse serum albumin. The assay is described as follows: SPR, albumin immobilized, acetate pH 7.4.
In assay [35] the target is T8, human PCSK9. The assay is described as follows: BLI (Octet), biotinylated PCSK9 on tips, no HSA.
Assay [36] deals with T8, human PCSK9. The assay can be described thus: BLI (Octet), biotinylated PCSK9 on tips, tandem in complex with excess HSA.

B1: PKE2 Adnectin 2630_D02 (designed binder)
chain: MGVSDVPRDLEVVAATPTSLLISWDAPAVTVRYYRITYGREVQKYSDWGPLYIYNEFTVPGSKSTATISGLKPGVDYTITVYAVTGSGESPASSKPISINYRTEIDKPSQHHHHHH
notes: 10Fn3 domain with modified CD loop; the entry includes the His6 tail
B1: the binding result with domain I of HSA and with domain III of HSA was “no binding” in each case. Further, the Kd with human serum albumin [1] was determined as 1 nM; with rhesus serum albumin [2] it was 1.8 nM; with mouse serum albumin [3], 13.6 nM; with cynomolgus serum albumin [4], 1.6 nM; in the assay with rat serum albumin [5] it was 200 nM. Besides, the koff was 0.000162 s⁻¹ with human serum albumin [1]; 0.000362 s⁻¹ in the assay with rhesus serum albumin [2]; 0.0092 s⁻¹ with mouse serum albumin [3]; 0.000335 s⁻¹ with cynomolgus serum albumin [4]; 0.0299 s⁻¹ with rat serum albumin [5]. Also, the kon with human serum albumin [1] came out at 167000 M⁻¹ s⁻¹; in the assay with rhesus serum albumin [2], 207000 M⁻¹ s⁻¹; with mouse serum albumin [3], 678000 M⁻¹ s⁻¹; in the assay with cynomolgus serum albumin [4], 208000 M⁻¹ s⁻¹; with rat serum albumin [5], 150000 M⁻¹ s⁻¹. The molecule further had an IC50 in the assay with human serum albumin [6] of 28.7 nM. For the same molecule, the EC50 with human serum albumin [7] was determined as 9 nM.

B2: PCSK9-PKE2 tandem Adnectin w/o his tag 5190_E01 (designed binder)
chain: MGVSDVPRDLEVVAATPTSLLISWDAPAEGYGYYRITYGETGGNSPVQEFTVPVSKGTATISGLKPGVDYTITVYAVEFDFPGAGYYHRPISINYRTEPSTPPTPSPSTPPTPSPSGVSDVPRDLEVVAATPTSLLISWDAPAVTVRYYRITYGREVQKYSDLGPLYIYQEFTVPGSKSTATISGLKPGVDYTITVYAVTGSGESPASSKPISINYRTP
notes: also called ATI-1676; 4472_C06 tandem Adnectin without a 6X histidine tail
Regarding B2, the Kd turned out to be 57.2 nM with human serum albumin [8]; 53.8 nM with rhesus serum albumin [9]; 43.3 nM with mouse serum albumin [10]; 50.5 nM with cynomolgus serum albumin [11]; 200 nM with rat serum albumin [12]. Besides, the dissociation rate constant (koff) in the assay with human serum albumin [8] is 0.000272 s⁻¹; in the assay with rhesus serum albumin [9], 0.000351 s⁻¹; with mouse serum albumin [10], 0.000723 s⁻¹; with cynomolgus serum albumin [11] it was 0.000326 s⁻¹; with rat serum albumin [12], 0.00147 s⁻¹. Also, the kon in the assay with human serum albumin [8] worked out at 4790 M⁻¹ s⁻¹; with rhesus serum albumin [9], 6520 M⁻¹ s⁻¹; with mouse serum albumin [10], 16700 M⁻¹ s⁻¹; in the assay with cynomolgus serum albumin [11] it was 6440 M⁻¹ s⁻¹; in the assay with rat serum albumin [12], 7350 M⁻¹ s⁻¹.

B3: 5963_F03.PS5-2 (designed binder)
chain: MGVSDVPRDLEVVAATPTSLLISWDAPCVTVRYYRITYGREVQKYSDLGPLYIYQEFTVPGSKSTATISGLKPGVDYTITVYAVTGSGESPASSKPISINYRTPHHHHHH
Consider B3, for which the koff amounted to 0.000251 s⁻¹ in the assay with human serum albumin [13], 0.000312 s⁻¹ with rhesus serum albumin [14], 0.000504 s⁻¹ with mouse serum albumin [15] and 0.000825 s⁻¹ with rat serum albumin [16].

B4: PCSK9-PKE2 tandem 4472_F08 (designed binder)
PCSK9 domain: MGVSDVPRDLEVVAATPTSLLISWDAPAEGYGYYRITYGETGGNSPVQEFTVPVSKGTATISGLKPGVDYTITVYAVEFDFPGAGYYHRPISINYRTE
PKE2 domain: GVSDVPRDLEVVAATPTSLLISWDAPAVTVRYYRITYGREVQKYSDLGPLYIYQEFTVPGSKSTATISGLKPGVDYTITVYAVTGSGESPASSKPISINYRTEHHHHHH
modifications: The real molecule is ONE polypeptide: PCSK9 domain, undisclosed linker F, PKE2 domain. It is given here as two chains because the linker letters are unknown.
notes: not shown: The inter-domain linker
B4: the Kd with human serum albumin [17] was found to be 67.1 nM; in the assay with rhesus serum albumin [18], 68.7 nM; with mouse serum albumin [19], 25.5 nM; in the assay with human serum albumin [26], 83.8 nM; with rhesus serum albumin [27] it was 71.7 nM; with mouse serum albumin [28], 26.3 nM. For the same molecule, the dissociation constant (Kd) was found to be 43.9 nM in the assay with human serum albumin [29]; 110 nM in the assay with rhesus serum albumin [30]; 137 nM with mouse serum albumin [31]; 83.9 nM in the assay with human serum albumin [32]; 75.4 nM with rhesus serum albumin [33]; 35 nM with mouse serum albumin [34]. Also, the Kd was 0.404 nM with human PCSK9 [35] and 0.902 nM in the assay with human PCSK9 [36]. Also, the koff was found to be 0.000324 s⁻¹ with human serum albumin [17]; 0.000367 s⁻¹ with rhesus serum albumin [18]; 0.000344 s⁻¹ with mouse serum albumin [19]; 0.000301 s⁻¹ with human serum albumin [26]; 0.000346 s⁻¹ in the assay with rhesus serum albumin [27]; 0.000359 s⁻¹ with mouse serum albumin [28]. Further, the koff with human serum albumin [29] stood at 0.000489 s⁻¹; with rhesus serum albumin [30] it was 0.000818 s⁻¹; with mouse serum albumin [31], 0.0015 s⁻¹; with human serum albumin [32], 0.000387 s⁻¹; in the assay with rhesus serum albumin [33], 0.000405 s⁻¹; in the assay with mouse serum albumin [34], 0.000407 s⁻¹. Besides, the koff with human PCSK9 [35] worked out at 0.000118 s⁻¹; with human PCSK9 [36] it was 0.000148 s⁻¹. In addition, the kon was determined as 4820 M⁻¹ s⁻¹ with human serum albumin [17]; 5340 M⁻¹ s⁻¹ with rhesus serum albumin [18]; 13500 M⁻¹ s⁻¹ in the assay with mouse serum albumin [19]; 3590 M⁻¹ s⁻¹ with human serum albumin [26]; 4820 M⁻¹ s⁻¹ with rhesus serum albumin [27]; 13700 M⁻¹ s⁻¹ in the assay with mouse serum albumin [28]. The kon with human serum albumin [29] was found to be 11100 M⁻¹ s⁻¹; in the assay with rhesus serum albumin [30], 7400 M⁻¹ s⁻¹; in the assay with mouse serum albumin [31], 11000 M⁻¹ s⁻¹; with human serum albumin [32] it was 4610 M⁻¹ s⁻¹; with rhesus serum albumin [33], 5380 M⁻¹ s⁻¹; with mouse serum albumin [34], 11600 M⁻¹ s⁻¹. For the same molecule, the kon in the assay with human PCSK9 [35] came out at 289000 M⁻¹ s⁻¹; with human PCSK9 [36] it was 161000 M⁻¹ s⁻¹. Also, the half-inhibitory concentration (IC50) with human PCSK9 [20] turned out to be 2.5 nM; in the assay with human PCSK9 [21], 7.88 nM; in the assay with human PCSK9 [22], 5.88 nM. Besides, the values for the half-maximal effective concentration (EC50) with human serum albumin [23], with rhesus serum albumin [24] and in the assay with mouse serum albumin [25] were 55.4 nM, 35.2 nM and 7.3 nM, respectively.
